Tests used:
Experiment in all cases: cell-based or functional assay
[1] = molecular target: HIV-1 Env of isolate 92UG024 (HIV-1)
[2] = molecular target: HIV-1 Env of isolate 93WR029 (HIV-1)
[3] = molecular target: HIV-1 Env of isolate APV-6 (HIV-1)
[4] = molecular target: HIV-1 Env of isolate JRCSF (subtype B) (HIV-1) (UniProt P20871)
[5] = molecular target: HIV-1 Env of isolate MG RM-D-018 (HIV-1)
[6] = molecular target: HIV-1 Env of isolate MGRM-A-004 (HIV-1)
[7] = molecular target: HIV-1 Env of isolate MGRM-A-011 (subtype A) (HIV-1)
[8] = molecular target: HIV-1 Env of isolate MGRM-C-026 (pseudovirus) (HIV-1)
[9] = molecular target: HIV-1 Env of isolate MGRM-Chronic-B-010 (subtype B) (HIV-1)
[10] = molecular target: HIV-1 Env of isolate MGRM-Chronic-B-012 (subtype B) (HIV-1)
[11] = molecular target: HIV-1 envelope glycoprotein (Env) of isolate MGRM-C-007 (HIV-1)
[12] = molecular target: HIV-1 envelope glycoprotein (Env) of isolate MGRM-C-020 (HIV-1)
[13] = molecular target: HIV-1 Env of isolate 97ZA012 (clade C) (HIV-1 isolate 97ZA012)
[14] = molecular target: HIV-1 Env of isolate APV_6, clade B, on pseudovirus (HIV-1)
[15] = molecular target: HIV-1 Env of isolate MGRM-Chronic-B-008, clade B, on pseudovirus (HIV-1)
[16] = molecular target: HIV-1 Env of isolate MGRM-D-008 (clade D pseudovirus) (HIV-1)
[17] = molecular target: HIV-1 Env of isolate MGRM-G-006 (HIV-1)
[18] = molecular target: HIV-1 Env of isolate MGRM-G-009 (HIV-1)
[19] = molecular target: HIV-1 Env of pseudovirus MGRM-AG-013 (clade CRF_AG) (HIV-1)
[20] = molecular target: HIV-1 Env of pseudovirus MGRM-G-006 (clade G) (HIV-1)
[21] = molecular target: HIV-1 Env of pseudovirus MGRM-G-015 (HIV-1, clade G isolate MGRM-G-015)
[22] = molecular target: HIV-1 Env of pseudovirus MGRM-G-019 (HIV-1, clade G isolate MGRM-G-019)
[23] = molecular target: HIV-1 Env of pseudovirus MGRM-G-024 (HIV-1, clade G isolate MGRM-G-024)
[24] = molecular target: HIV-1 IAVI-C18 envelope glycoprotein (Env) on pseudovirus (HIV-1)
[25] = molecular target: HIV-1 MGRM-A-010 Env (pseudovirus, clade A) (HIV-1)
[26] = molecular target: HIV-1 Env of isolate MGRM-F1-017 (HIV-1)
[27] = molecular target: HIV-1 Env of isolate MGRM-F1-023 (HIV-1)
[28] = molecular target: HIV-1 92BR020 Env (pseudovirus) (HIV-1)
[29] = molecular target: HIV-1 92BR020 Env (pseudovirus, clade B) (HIV-1)
[30] = molecular target: HIV-1 Env of isolate 92UG114 (pseudovirus) (HIV-1)
[31] = molecular target: HIV-1 Env of isolate 93TH305 (subtype B pseudovirus) (HIV-1)
[32] = molecular target: HIV-1 Env of isolate MGRM-AE-005 (HIV-1)
[33] = molecular target: HIV-1 Env of isolate MGRM-AG-009 (HIV-1)
[34] = molecular target: HIV-1 Env of isolate MGRM-Chronic-B-008 (subtype B pseudovirus) (HIV-1)
[35] = molecular target: HIV-1 Env of isolate MGRM-D-014 (pseudovirus) (HIV-1)
[36] = molecular target: HIV-1 Env of isolate MGRM-D-018 (pseudovirus) (HIV-1)
[37] = molecular target: HIV-1 Env of isolate MGRM-D-024 (pseudovirus) (HIV-1)
[38] = molecular target: HIV-1 Env of isolate THR0.18 (subtype B pseudovirus) (HIV-1)
[39] = molecular target: HIV-1 Env of isolate TRO.11 (subtype B pseudovirus) (HIV-1)
[40] = molecular target: HIV-1 93IN905 envelope glycoprotein (Env) on pseudovirus (HIV-1)

Sequence of 4993_K13 (PGT-141) (antibody) (VH): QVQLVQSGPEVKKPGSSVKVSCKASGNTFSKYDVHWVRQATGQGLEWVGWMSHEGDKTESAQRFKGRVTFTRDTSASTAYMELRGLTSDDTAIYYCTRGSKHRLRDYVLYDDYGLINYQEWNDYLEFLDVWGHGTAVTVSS
Sequence of 4993_K13 (PGT-141) (antibody) (VL): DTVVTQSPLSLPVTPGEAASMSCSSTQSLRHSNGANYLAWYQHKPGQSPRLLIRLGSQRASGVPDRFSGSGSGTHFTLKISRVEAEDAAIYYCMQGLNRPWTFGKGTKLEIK
Sequence of 4980_N08 (PGT-143) (antibody) (VH): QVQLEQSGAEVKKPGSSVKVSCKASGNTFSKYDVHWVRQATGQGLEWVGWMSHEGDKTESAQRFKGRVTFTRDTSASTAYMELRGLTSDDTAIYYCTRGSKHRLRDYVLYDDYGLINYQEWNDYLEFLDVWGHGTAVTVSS
Sequence of 4980_N08 (PGT-143) (antibody) (VL): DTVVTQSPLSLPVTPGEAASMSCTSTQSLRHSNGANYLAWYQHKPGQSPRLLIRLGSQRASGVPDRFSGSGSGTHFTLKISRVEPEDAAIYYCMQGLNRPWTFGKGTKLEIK
Sequence of 4970_K22 (PGT-144) (antibody) (VH): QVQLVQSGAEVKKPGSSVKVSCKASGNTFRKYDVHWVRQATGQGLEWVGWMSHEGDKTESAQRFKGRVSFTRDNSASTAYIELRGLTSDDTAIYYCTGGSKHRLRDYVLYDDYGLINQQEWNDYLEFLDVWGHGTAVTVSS
Sequence of 4970_K22 (PGT-144) (antibody) (VL): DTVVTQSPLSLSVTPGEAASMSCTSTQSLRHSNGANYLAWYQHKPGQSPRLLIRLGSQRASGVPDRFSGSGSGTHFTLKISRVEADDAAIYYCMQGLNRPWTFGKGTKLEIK
Sequence of 4995_E20 (PGT-142) (antibody) (VH): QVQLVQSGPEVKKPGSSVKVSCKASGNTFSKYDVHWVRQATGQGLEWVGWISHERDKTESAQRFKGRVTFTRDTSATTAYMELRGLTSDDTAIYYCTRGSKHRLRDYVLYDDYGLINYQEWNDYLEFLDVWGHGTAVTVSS
Sequence of 5345_I01 (PGT-137) (antibody) (VH): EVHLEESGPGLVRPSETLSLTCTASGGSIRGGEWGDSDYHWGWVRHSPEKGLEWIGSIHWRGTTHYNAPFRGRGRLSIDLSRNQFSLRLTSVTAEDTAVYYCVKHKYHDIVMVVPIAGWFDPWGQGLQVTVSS
Sequence of 5345_I01 (PGT-137) (antibody) (VL): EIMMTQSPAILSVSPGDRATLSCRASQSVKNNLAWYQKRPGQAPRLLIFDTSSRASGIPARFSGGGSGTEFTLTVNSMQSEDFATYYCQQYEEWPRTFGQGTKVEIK

| Substance | Primary Neutralization Index (B cell culture supernatant) [8] | IC50 (µg/mL), pseudovirus neutralization [17] [µg/mL] | IC50 (µg/mL), pseudovirus neutralization [18] [µg/mL] | IC50 neutralization [25] [µg/mL] | neutralization IC50 (pseudovirus) [28] [µg/mL] | IC50, pseudovirus neutralization [30] [µg/mL] | IC50 (µg/mL), pseudovirus neutralization [31] [µg/mL] | IC50 [32] [µg/mL] | IC50 [33] [µg/mL] | IC50 (µg/mL), pseudovirus neutralization [34] [µg/mL] | IC50, pseudovirus neutralization [35] [µg/mL] | IC50, pseudovirus neutralization [36] [µg/mL] | IC50, pseudovirus neutralization [37] [µg/mL] | IC50 (µg/mL), pseudovirus neutralization [26] [µg/mL] | IC50 (µg/mL), pseudovirus neutralization [27] [µg/mL] | IC50 (µg/mL), pseudovirus neutralization [38] [µg/mL] | IC50 (µg/mL), pseudovirus neutralization [39] [µg/mL] | further results |
| --- | --- | --- | --- | --- | --- | --- | --- | --- | --- | --- | --- | --- | --- | --- | --- | --- | --- | --- |
| 5345_I01 (PGT-137) (antibody) | 11.3 | – | – | – | – | – | – | – | – | – | – | – | – | – | – | – | – | IC50 (µg/mL), pseudovirus neutralization [1]: 0.106 µg/mL; IC50 [2]: > 50 µg/mL; neutralization IC50 [3]: > 50 µg/mL; IC50 neutralization [4]: > 50 µg/mL; IC50 (µg/mL), pseudovirus neutralization [5]: 15.1 µg/mL; IC50 [6]: > 50 µg/mL; IC50 (µg/mL), pseudovirus neutralization [7]: > 50 µg/mL; IC50 neutralization [9]: > 50 µg/mL; IC50 neutralization [10]: > 50 µg/mL; IC50 (µg/mL), pseudovirus neutralization [11]: > 50 µg/mL; IC50 (µg/mL), pseudovirus neutralization [12]: > 50 µg/mL |
| 1496_C09 (PG9) (TCN-109) (antibody) | – | 1.98 | 10.7 | 0.0375 | – | – | – | – | – | – | – | – | – | – | – | – | – | IC50 (µg/ml), pseudovirus neutralization [13]: 1.27 µg/mL; IC50 (µg/ml), pseudovirus neutralization [14]: 0.12 µg/mL; IC50 (µg/ml), pseudovirus neutralization [15]: 6.66 µg/mL; IC50 (µg/ml), pseudovirus neutralization [16]: 6.86 µg/mL; IC50 [19]: 0.23 µg/mL; IC50 [20]: 0.51 µg/mL; IC50 (µg/ml), pseudovirus neutralization [21]: 1.51 µg/mL; IC50 (µg/ml), pseudovirus neutralization [22]: 0.67 µg/mL; IC50 (µg/ml), pseudovirus neutralization [23]: 0.07 µg/mL; IC50, pseudovirus neutralization [24]: 0.0535 µg/mL |
| VRC01 (antibody) | – | 0.055 | 0.073 | – | – | – | – | – | – | – | – | – | – | – | – | – | – | IC50 [5]: > 50 µg/mL; IC50 [26]: 1.08 µg/mL; IC50 [27]: 0.392 µg/mL |
| 4877_D15 (PGT-122) (antibody) | – | – | – | 1.68 | 0.0337 | 0.011 | 0.013 | > 50 | 0.128 | 0.017 | 0.012 | 0.007 | 0.185 | > 50 | 0.154 | > 50 | 0.011 | IC50 neutralization [29]: 0.0337 µg/mL |
| 4995_E20 (PGT-142) (antibody) | – | 0.019 | 2.81 | – | > 10 | – | – | – | – | – | – | – | – | – | – | – | – | – |
| 4980_N08 (PGT-143) (antibody) | – | 0.031 | 2.97 | – | > 10 | – | – | – | – | – | – | – | – | – | – | – | – | – |
| PGV04 (antibody) | – | 0.083 | 0.043 | – | – | – | – | – | – | – | – | – | – | – | – | – | – | – |
| 4993_K13 (PGT-141) (antibody) | – | 0.043 | 1.89 | – | > 10 | – | – | – | – | – | – | – | – | – | – | – | – | – |
| 4970_K22 (PGT-144) (antibody) | – | 3.84 | > 50 | – | > 10 | – | – | – | – | – | – | – | – | – | – | – | – | – |
| 5123_A06 (PGT-125) (antibody) | 512 | – | – | 0.0055 | 0.0214 | 0.349 | 0.008 | 0.01 | 0.026 | > 50 | > 50 | > 50 | > 50 | > 50 | 0.12 | > 50 | 0.111 | IC50 neutralization [29]: 0.0214 µg/mL; Polyclonal Transfectant Neutralization Index [8]: 88.3 |
| 5141_B17 (PGT-126) (antibody) | 654 | – | – | 0.0033 | 0.0163 | 0.038 | 0.013 | 0.324 | 0.03 | 5.89 | 0.03 | 0.009 | 0.376 | > 50 | 0.009 | > 50 | 0.041 | IC50 neutralization [29]: 0.0163 µg/mL; IC50, pseudovirus neutralization [40]: 0.0194 µg/mL; IC80 (pseudovirus neutralization) [40]: 0.0676 µg/mL; IC90 (pseudovirus neutralization) [40]: 0.14 µg/mL; IC95 (pseudovirus neutralization) [40]: 0.275 µg/mL; Polyclonal Transfectant Neutralization Index [8]: 102 |
| 5136_H01 (PGT-131) (antibody) | 1.2 | – | – | – | – | – | – | – | – | – | – | – | – | – | – | – | – | IC50 (µg/mL), pseudovirus neutralization [1]: > 50 µg/mL; IC50 [2]: > 50 µg/mL; neutralization IC50 [3]: > 50 µg/mL; IC50 neutralization [4]: 0.029 µg/mL; IC50 (µg/mL), pseudovirus neutralization [5]: 0.148 µg/mL; IC50 [6]: > 50 µg/mL; IC50 (µg/mL), pseudovirus neutralization [7]: > 50 µg/mL; IC50 neutralization [9]: 0.016 µg/mL; IC50 neutralization [10]: 15.7 µg/mL; IC50 (µg/mL), pseudovirus neutralization [11]: > 50 µg/mL; IC50 (µg/mL), pseudovirus neutralization [12]: > 50 µg/mL |
| 4858_P08 (PGT-123) (antibody) | 33.8 | – | – | 0.492 | 0.013 | 0.005 | 0.008 | > 50 | 0.073 | 0.01 | 0.009 | 0.007 | 0.023 | > 50 | 0.053 | > 50 | 0.008 | IC50 neutralization [29]: 0.013 µg/mL; neutralization IC50 [40]: 0.0071 µg/mL; neutralization IC80 [40]: 0.0281 µg/mL; neutralization IC90 [40]: 0.0625 µg/mL; neutralization IC95 [40]: 0.131 µg/mL |
| 5114_A19 (PGT-128) (antibody) | 17.1 | – | – | – | – | – | – | – | – | – | – | – | – | – | – | – | – | IC50 (µg/mL), pseudovirus neutralization [1]: > 50 µg/mL; IC50 [2]: > 50 µg/mL; neutralization IC50 [3]: 0.007 µg/mL; IC50 neutralization [4]: 0.003 µg/mL; IC50 (µg/mL), pseudovirus neutralization [5]: 0.008 µg/mL; IC50 [6]: > 50 µg/mL; IC50 (µg/mL), pseudovirus neutralization [7]: > 50 µg/mL; Polyclonal Transfectant Neutralization Index [8]: 32.2; IC50 neutralization [9]: 0.004 µg/mL; IC50 neutralization [10]: 0.026 µg/mL; IC50 (µg/mL), pseudovirus neutralization [11]: 0.111 µg/mL; IC50 (µg/mL), pseudovirus neutralization [12]: 5.85 µg/mL |
| 4838_L06 (PGT-121) (antibody) | – | – | – | – | – | 0.004 | 0.007 | > 50 | 0.08 | 0.007 | 0.009 | 0.005 | 0.038 | 16.9 | 0.097 | > 50 | 0.008 | – |
| 5145_B14 (PGT-127) (antibody) | 86.9 | – | – | – | – | 7.09 | 0.017 | > 50 | 0.059 | 21.5 | 0.393 | 0.021 | 1.95 | > 50 | 0.119 | > 50 | 0.079 | Polyclonal Transfectant Neutralization Index [8]: 2.62 |

Reference: US20250320281A1
